Reference: the supplement of paper PMC9732359
± gives the uncertainty stated by the source.

Experiment: protein stability index of a GFP-peptide fusion (yeast GPS) (PSI 1-4); higher = more stable; sorted into four equal gates, so the index is relative within each strain
Procedure, shortened: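 Tiled 17-residue peptides from yeast proteins were fused downstream of GFP on a plasmid that also expresses Cherry, and the pooled library was carried in yeast. Mid-log cultures grown in leucine-free medium were sorted into four equal gates by GFP/Cherry fluorescence ratio. Plasmids from each gate were PCR-amplified and Illumina-sequenced, and reads were assigned to strains by barcodes. Each peptide's protein stability index is the sum, over gates, of the gate's read frequency multiplied by its gate number.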

LNEFFTRELAEEGYSGV [RPS3]
protein stability index (doa10∆): 2.5 ± 0.22 | protein stability index (pdr5∆): 1.82 ± 0.12 | protein stability index (san1∆): 1.44 ± 0.15 | protein stability index (ubr1∆): 1.68 ± 0.11

LNEIELDNLKLKELRID [GRR1]
protein stability index (doa10∆): 3.28 ± 0.097 | protein stability index (pdr5∆): 3.09 ± 0.11 | protein stability index (san1∆): 3.18 ± 0.054 | protein stability index (ubr1∆): 2.85 ± 0.092

LNINNPNFLIMQGKITK [SMC2]
protein stability index (doa10∆): 3.39 ± 0.26 | protein stability index (pdr5∆): 2.47 ± 0.19 | protein stability index (san1∆): 2.87 ± 0.13

LNKAGKPFRQTKFKVRG [RPL38]
protein stability index (doa10∆): 2.78 ± 0.12 | protein stability index (pdr5∆): 3.33 ± 0.069 | protein stability index (san1∆): 3.19 ± 0.11 | protein stability index (ubr1∆): 3.04 ± 0.081

LNKLYGGAKSRGVRPYK [RPS19A]
protein stability index (doa10∆): 3.34 ± 0.14 | protein stability index (pdr5∆): 3.3 ± 0.18 | protein stability index (san1∆): 3.09 ± 0.061

LNLINAKLWFYIYLSHE [RPN3]
protein stability index (doa10∆): 1.43 ± 0.059 | protein stability index (pdr5∆): 1.23 ± 0.056 | protein stability index (san1∆): 1.28 ± 0.095 | protein stability index (ubr1∆): 1.44 ± 0.065

LNLLNYQELFIQPKNSD [YML103C/NUP188]
protein stability index (doa10∆): 2.57 ± 0.06 | protein stability index (pdr5∆): 2.21 ± 0.056 | protein stability index (san1∆): 2.35 ± 0.054 | protein stability index (ubr1∆): 2.3 ± 0.045

LNPQVADINKNFLSVIT [RPN2]
protein stability index (doa10∆): 1.81 ± 0.065 | protein stability index (pdr5∆): 2.19 ± 0.053 | protein stability index (san1∆): 1.98 ± 0.071 | protein stability index (ubr1∆): 1.95 ± 0.053

LNRLPAASLGDMVMATV [RPL23A]
protein stability index (doa10∆): 1.6 ± 0.1 | protein stability index (pdr5∆): 1.78 ± 0.072 | protein stability index (san1∆): 2.52 ± 0.17 | protein stability index (ubr1∆): 2.11 ± 0.057

LNSLLTYIKSEITQQEK [SMC4]
protein stability index (doa10∆): 2.77 ± 0.066 | protein stability index (pdr5∆): 2.04 ± 0.055 | protein stability index (san1∆): 2.73 ± 0.071 | protein stability index (ubr1∆): 2.63 ± 0.06

LNSLSPQAILAKNSIID [SWI1]
protein stability index (doa10∆): 1.79 ± 0.033 | protein stability index (pdr5∆): 1.72 ± 0.029 | protein stability index (san1∆): 1.8 ± 0.044 | protein stability index (ubr1∆): 1.75 ± 0.026

LNSMPNNVNEYSYTTIV [YJL039C/NUP192]
protein stability index (doa10∆): 2.69 ± 0.085 | protein stability index (pdr5∆): 2.95 ± 0.092 | protein stability index (san1∆): 2.75 ± 0.075 | protein stability index (ubr1∆): 2.6 ± 0.058

LPEIAKEIYTTLGNQML [YJR042W/NUP85]
protein stability index (doa10∆): 2.28 ± 0.086 | protein stability index (pdr5∆): 2.42 ± 0.087 | protein stability index (san1∆): 2.87 ± 0.093 | protein stability index (ubr1∆): 2.49 ± 0.069

LPEPTEGFAADDEPTTP [FAS1]
protein stability index (doa10∆): 3 ± 0.095 | protein stability index (pdr5∆): 2.65 ± 0.099 | protein stability index (san1∆): 3.35 ± 0.15 | protein stability index (ubr1∆): 2.92 ± 0.065

LPGDMLAVCDELGNMTM [SIN4]
protein stability index (doa10∆): 2.76 ± 0.071 | protein stability index (pdr5∆): 2.77 ± 0.072 | protein stability index (san1∆): 2.78 ± 0.089 | protein stability index (ubr1∆): 2.66 ± 0.085

LPGTNNNSNSNNNSSNE [SEC65]
protein stability index (doa10∆): 2.93 ± 0.051 | protein stability index (pdr5∆): 2.69 ± 0.054 | protein stability index (san1∆): 2.89 ± 0.042 | protein stability index (ubr1∆): 2.8 ± 0.049

LPLDSQDDEYVKDWLYD [PRP8]
protein stability index (doa10∆): 3.44 ± 0.15 | protein stability index (pdr5∆): 3.39 ± 0.088 | protein stability index (san1∆): 3.35 ± 0.099 | protein stability index (ubr1∆): 3.1 ± 0.053

LPLQAQQQLYGGNNNNN [SWI1]
protein stability index (doa10∆): 3.05 ± 0.064 | protein stability index (pdr5∆): 2.92 ± 0.07 | protein stability index (san1∆): 2.68 ± 0.068 | protein stability index (ubr1∆): 2.56 ± 0.045

LPNKSTISKTVSSTIPR [FAS2]
protein stability index (doa10∆): 2.01 ± 0.072 | protein stability index (pdr5∆): 2.63 ± 0.077 | protein stability index (san1∆): 2.92 ± 0.11 | protein stability index (ubr1∆): 2.94 ± 0.084

LPVASPFHSHLLVPASD [FAS1]
protein stability index (doa10∆): 1.61 ± 0.053 | protein stability index (pdr5∆): 1.62 ± 0.062 | protein stability index (san1∆): 1.98 ± 0.063 | protein stability index (ubr1∆): 1.96 ± 0.044

LPYNWDALEMQWRYLYD [ARP7]
protein stability index (doa10∆): 2.1 ± 0.065 | protein stability index (pdr5∆): 2.1 ± 0.073 | protein stability index (san1∆): 2.44 ± 0.11 | protein stability index (ubr1∆): 2.19 ± 0.068

LQAIQEKLNKTDENTPS [ITC1]
protein stability index (doa10∆): 3.12 ± 0.098 | protein stability index (pdr5∆): 3.08 ± 0.061 | protein stability index (san1∆): 2.98 ± 0.047 | protein stability index (ubr1∆): 2.89 ± 0.043

LQDLEEAKSFQDEAELV [RPC82]
protein stability index (doa10∆): 3.5 ± 0.12 | protein stability index (pdr5∆): 3.3 ± 0.15 | protein stability index (san1∆): 3.52 ± 0.14 | protein stability index (ubr1∆): 3.72 ± 0.17

LQDLSRYSRQFINNVLS [GRR1]
protein stability index (doa10∆): 2.78 ± 0.059 | protein stability index (pdr5∆): 2.29 ± 0.049 | protein stability index (san1∆): 2.56 ± 0.049 | protein stability index (ubr1∆): 2.74 ± 0.051

LQDWQREDEFGSIPSLT [YDL088C/ASM4]
protein stability index (doa10∆): 3.22 ± 0.073 | protein stability index (pdr5∆): 3.19 ± 0.066 | protein stability index (san1∆): 3.11 ± 0.049 | protein stability index (ubr1∆): 3.53 ± 0.082

LQGIVIWDSQKFFIMIV [POP4]
protein stability index (doa10∆): 1.7 ± 0.059 | protein stability index (pdr5∆): 1.91 ± 0.064 | protein stability index (san1∆): 2.21 ± 0.076 | protein stability index (ubr1∆): 2.3 ± 0.045

LQGVTYPVLRKLYKKIA [YIL149C/MLP2]
protein stability index (doa10∆): 1.94 ± 0.093 | protein stability index (pdr5∆): 1.79 ± 0.056 | protein stability index (san1∆): 1.55 ± 0.14 | protein stability index (ubr1∆): 1.83 ± 0.055

LQISDIPAAGNNRSVSM [SRB5]
protein stability index (doa10∆): 2.77 ± 0.075 | protein stability index (pdr5∆): 2.35 ± 0.07 | protein stability index (san1∆): 2.4 ± 0.083 | protein stability index (ubr1∆): 2.8 ± 0.06

LQKKFVTKQSELNSSED [SMC1]
protein stability index (pdr5∆): 3.52 ± 0.26

LQKSSKSMITSEGEQKS [YAR002W/NUP60]
protein stability index (doa10∆): 2.84 ± 0.044 | protein stability index (pdr5∆): 2.97 ± 0.047 | protein stability index (san1∆): 2.85 ± 0.04 | protein stability index (ubr1∆): 3.06 ± 0.046

LQLELTIEDIAVAITRA [RPO31]
protein stability index (doa10∆): 1.92 ± 0.057 | protein stability index (pdr5∆): 2.12 ± 0.044 | protein stability index (san1∆): 1.97 ± 0.058 | protein stability index (ubr1∆): 2.07 ± 0.041

LQLLPLQKAVRGHVLQF [SNF2]
protein stability index (doa10∆): 1.22 ± 0.029 | protein stability index (pdr5∆): 1.29 ± 0.041 | protein stability index (san1∆): 1.23 ± 0.081 | protein stability index (ubr1∆): 1.16 ± 0.026

LQMDYKDDMKVDDAIEL [PRE9]
protein stability index (doa10∆): 3.21 ± 0.14 | protein stability index (pdr5∆): 3.42 ± 0.081 | protein stability index (san1∆): 3.21 ± 0.067 | protein stability index (ubr1∆): 3.51 ± 0.071

LQNDLIHKIQNDNNLKK [RPN5]
protein stability index (doa10∆): 2.96 ± 0.081 | protein stability index (pdr5∆): 3.24 ± 0.068 | protein stability index (san1∆): 3.11 ± 0.054 | protein stability index (ubr1∆): 3.12 ± 0.065

LQNIVMDCTKEEEATMT [YIL149C/MLP2]
protein stability index (doa10∆): 3.4 ± 0.12 | protein stability index (pdr5∆): 3.3 ± 0.1 | protein stability index (san1∆): 3.31 ± 0.086 | protein stability index (ubr1∆): 2.98 ± 0.089

LQNKPDAKKARFWSFMK [SIR4]
protein stability index (doa10∆): 2.55 ± 0.098 | protein stability index (pdr5∆): 2.68 ± 0.13 | protein stability index (san1∆): 2.61 ± 0.093 | protein stability index (ubr1∆): 2.17 ± 0.19

LQNNINNSNNNNIIRIQ [SNF11]
protein stability index (doa10∆): 2.94 ± 0.089 | protein stability index (pdr5∆): 2.57 ± 0.13 | protein stability index (san1∆): 2.87 ± 0.069 | protein stability index (ubr1∆): 3.32 ± 0.089

LQQKHELDTASRILKAQ [YGR119C/NUP57]
protein stability index (doa10∆): 2.73 ± 0.045 | protein stability index (pdr5∆): 2.83 ± 0.046 | protein stability index (san1∆): 2.53 ± 0.052 | protein stability index (ubr1∆): 3.03 ± 0.034

LQRHSGISSTLVSANND [YLR018C/POM34]
protein stability index (doa10∆): 2.7 ± 0.052 | protein stability index (pdr5∆): 2.87 ± 0.064 | protein stability index (san1∆): 2.96 ± 0.062 | protein stability index (ubr1∆): 2.94 ± 0.07

LQVDVDIAGQRDDALVV [RRP42]
protein stability index (doa10∆): 2.07 ± 0.17

LQYGWKVERHIMDNDPV [RPO21]
protein stability index (doa10∆): 1.19 ± 0.069 | protein stability index (pdr5∆): 1.21 ± 0.12 | protein stability index (san1∆): 1.37 ± 0.19 | protein stability index (ubr1∆): 1.24 ± 0.098

LRDIGECENEIKTKQMS [SMC2]
protein stability index (doa10∆): 3.05 ± 0.29 | protein stability index (pdr5∆): 3.29 ± 0.092 | protein stability index (san1∆): 3.2 ± 0.097 | protein stability index (ubr1∆): 3.41 ± 0.12

LRDREDWGQALRLLLLL [YJR042W/NUP85]
protein stability index (doa10∆): 2.83 ± 0.066 | protein stability index (pdr5∆): 2.13 ± 0.067 | protein stability index (san1∆): 2.2 ± 0.083 | protein stability index (ubr1∆): 1.66 ± 0.044

LRDRNFSATGNFGFGID [RPL11A]
protein stability index (doa10∆): 3.23 ± 0.069 | protein stability index (pdr5∆): 3.28 ± 0.072 | protein stability index (san1∆): 2.93 ± 0.1 | protein stability index (ubr1∆): 3.25 ± 0.053

LRDSLADKIVDEFPELK [NUT2]
protein stability index (doa10∆): 2.76 ± 0.098 | protein stability index (pdr5∆): 2.41 ± 0.069 | protein stability index (san1∆): 1.97 ± 0.23 | protein stability index (ubr1∆): 1.44 ± 0.051

LRGCKFLQSVDITGIRD [GRR1]
protein stability index (doa10∆): 1.72 ± 0.034 | protein stability index (pdr5∆): 2.03 ± 0.046 | protein stability index (san1∆): 1.89 ± 0.053 | protein stability index (ubr1∆): 1.83 ± 0.04

LRIGRIEDVTPVPSDST [RPS14B]
protein stability index (doa10∆): 2.91 ± 0.037 | protein stability index (pdr5∆): 2.98 ± 0.043 | protein stability index (san1∆): 2.78 ± 0.04 | protein stability index (ubr1∆): 2.92 ± 0.037

LRLCLDIVPYFLKHNGE [RPN1]
protein stability index (doa10∆): 2.3 ± 0.063 | protein stability index (pdr5∆): 2.01 ± 0.037 | protein stability index (san1∆): 1.71 ± 0.082 | protein stability index (ubr1∆): 2.52 ± 0.074

LRLTRINSGTFVKVTKA [RPL7A]
protein stability index (doa10∆): 1.89 ± 0.1 | protein stability index (san1∆): 1.43 ± 0.28

LRPRKDSKDGTTLNIKV [SMB1]
protein stability index (san1∆): 3.18 ± 0.12

LRQFKTCPVEVIKRLEA [BRR2]
protein stability index (doa10∆): 2.94 ± 0.18 | protein stability index (pdr5∆): 3.23 ± 0.17 | protein stability index (ubr1∆): 2.81 ± 0.1

LRQLLKERYTVEDELTE [RRI1]
protein stability index (doa10∆): 3.04 ± 0.097 | protein stability index (pdr5∆): 2.71 ± 0.15 | protein stability index (san1∆): 3.33 ± 0.076 | protein stability index (ubr1∆): 3.51 ± 0.084
